Entries after “also recorded” stand apart in the source; their conditions may differ. Marks after values point to notes of the source that are not given here.
Experiments:
fVIIa/TF = target: T1, fVIIa/TF (Homo sapiens, UniProt P08709); test: Chromogenic assay, fVIIa/TF; format: biochemical
T1 construct: Recombinant fVIIa was products of Novo-Nordisk (Denmark); purchased Novo-Nordisk (Denmark) for fVIIa; Protgen (Beijing, China) for sTF; Haematologic Technologies Inc for EGR-fXa
Description: (§1) The recombinant anticoagulant polypeptides in the present invention were expressed in E. coli and purified in our laboratory, of which the activities against coagulation factors were investigated by chromogenic assays. Human coagulation factors IIa (thrombin), Xa, XIa, XIIa, EGR-fXa were products of Haematologic Technologies Inc (United States). Recombinant fVIIa was products of Novo-Nordisk (Denmark). Recombinant soluble tissue factor (sTF) was purchased from Protgen (Beijing, China). The following chromogenic substrates were used for these coagulation factor assays: S2765 for human fXa, S2288 for human fVIIa and fIIa, 52366 for human fXIa and fXIIa, respectively.
(§2) The chromogenic assays were carried out in a total reaction volume of 100 μl in individual wells of a 96-well microtiter plate. 50 μl fIIa, fXa, fXIa, or fXIIa (final concentration: 1 nM) was incubated with 10 μl recombinant anticoagulant polypeptide at various concentrations (or PBS control group) Assays for the detection activity of fVIIa: 50 μl fVIIa+TF (1 μM) and EGR-fXa (final concentration 500 nM) was incubated for 15 mins at 25° C., respectively. After the addition of 40 μl of prewarmed chromogenic substrate to a final concentration of 400 μM, the changes of absorbance at 405 nm were monitored by using an E1x808 kinetic microtiter reader. The data were used to calculate the velocities of response.

SD rats [1] = test: Rat clotting time after i.v. injection, PT; format: in vivo; details: for Clotting time PT: rat plasma 2 min after injection
Method: (§3) 40 SPF grade male SD rats (provided by the laboratory animal center of Guangdong Medical College, 300-350 g body weight) were randomly divided into a line group, and rNAPTin-1 low-dose (100 μg·kg^−1), middle-dose (1 mg·kg^−1), high dose group (5 mg·kg^−1), 10 rats each group. 2 min after intravenous injection of various rNAPTin-1, blood was harvested from animal heart, and injected into an anticoagulant tube (3.8% sodium citrate). Animal plasma was separated by centrifugation (1500×g, 10 mins) and was used to measure aPTT and PT.

SD rats [2] = test: Rat inferior vena cava (venous) thrombosis; format: in vivo; details: for Thrombosis rate: rats with thrombus / rats, 4 hours after ligation
Method: 40 SPF grade male SD rats (provided by the laboratory animal center of Guangdong Medical College, 300-350 g body weight) were randomly divided into saline group, and rNAPTin-1 low-dose (100 μg·kg^−1), middle-dose (1 mg·kg^−1), high dose group (5 mg·kg^−1), 10 rats each group, respectively. These rats were anaesthetized with 10% chloral hydrate (250 mg/kg) by intraperitoneal injection. […] The abdominal cavity was reopened after 4 hours, and the ligated segment was opened longitudinally to check for whether there is thrombus.

SD rats [3] = test: Rat clotting time after i.v. injection, aPTT; format: in vivo; details: for Clotting time aPTT: rat plasma 2 min after injection
Method: as §3

normal human plasma [4] = test: aPTT assay in normal human plasma; format: biochemical; details: for aPTT: normal human plasma; for multiples of prolonging aPTT: ratio of mean aPTT to blank control
Method: (§4) The recombinant anticoagulant polypeptides were expressed in Escherichia coli and purified in our laboratory. Anticoagulant activity was determined by measuring the aPTT and PT.
For the aPTT assay, 10 μl recombinant protein at various concentrations was mixed with 50 μl fresh normal human plasma, 20 μl aPTT reagent (MDC Hemostasis, Germany) and incubated for 15 mins at 37° C. 20 μl 0.05 mol/L prewarmed CaCl2 was then added to initiate the clotting reaction. The clotting time was measured with the absorbance at 630 nm by using an E1x808 kinetic microtiter reader (BioTek, United States). Each concentration was repeated 3 times. The ratio of the mean aPTT value of each concentration to blank control group is multiples of prolonging the aPTT.

normal human plasma [5] = test: PT assay in normal human plasma; format: biochemical; details: for PT: normal human plasma
Method: as §4
For the PT assay, 10 μl recombinant protein at various concentration was mixed with 45 μl normal human plasma and incubated for 15 mins at 37° C. 45 μl prewarmed PT reagent (MDC Hemostasis, Germany) was then added and the clotting time was measured with the absorbance at 630 nm by using an E1x808 kinetic microtiter reader (BioTek, United States). Each concentration was repeated 3 times.

SD rats [6] = test: Rat carotid artery thrombosis (FeCl3); format: in vivo; details: for Inhibition rate %: vs model group
Method: 50 SPF grade male SD rats (provided by the laboratory animal center of Guangdong Medical College, 300-350 g body weight) were randomly divided into sham operation group (except without the FeCl3, the remaining steps with other groups), model group, and rNAPTin-1 low dose (100 μg·kg^−1), middle dose (1 mg·kg^−1), high dose group (5 mg·kg^−1), 10 rats each group, respectively. These rats were anaesthetized with 10% chloral hydrate (250 mg/kg) by intraperitoneal injection. The right carotid artery was isolated by making a midline cervical incision followed by blunt dissection to expose a 1 cm segment of the vessel from the carotid sheath, and then a 0.6 cm wide sealing adhesive strip was inserted. After 5 mins of tail intravenous injection of drugs, separation spare the common carotid artery segment was ring wrapped by filter paper (1.0 cm×0.5 cm) soaked in 20% FeCl3 solution and sealed with strip seal. After 15 mins, the filter strips was remove. 40 mins later, the blood vessels ligation at both ends of filter paper was ligated. The vascular segment of the paper strip wrapped was precisely cut followed sucked excess blood in blood vessels with a clean filter paper, and wet weight including thrombotic vascular was accurately weighed, then weighed again after removing blood clots. The difference is the quality of the thrombus within the 0.5 cm long vessel segment. In sham operation, FeCl3 immersion filter strips were replaced with normal saline immersion filter strips.

human fXIa = target: T2, human fXIa (Homo sapiens, UniProt P03951); test: Chromogenic assay, fXIa; format: biochemical
T2 construct: Human coagulation factors IIa (thrombin), Xa, XIa, XIIa, EGR-fXa; purchased Haematologic Technologies Inc (United States)
T2 sequence (P03951 19-387 limits assumed): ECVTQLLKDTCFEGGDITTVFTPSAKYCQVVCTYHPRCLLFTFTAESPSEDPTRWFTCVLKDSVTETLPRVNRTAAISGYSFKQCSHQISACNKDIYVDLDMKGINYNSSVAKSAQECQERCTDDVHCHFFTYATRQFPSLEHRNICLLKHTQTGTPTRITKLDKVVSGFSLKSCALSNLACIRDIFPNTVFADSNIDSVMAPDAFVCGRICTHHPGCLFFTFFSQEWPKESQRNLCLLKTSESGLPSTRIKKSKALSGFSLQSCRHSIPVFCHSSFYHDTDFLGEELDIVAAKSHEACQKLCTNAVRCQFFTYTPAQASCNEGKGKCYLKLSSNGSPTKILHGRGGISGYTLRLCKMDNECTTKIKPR
T2 sequence (P03951 388-625 limits assumed): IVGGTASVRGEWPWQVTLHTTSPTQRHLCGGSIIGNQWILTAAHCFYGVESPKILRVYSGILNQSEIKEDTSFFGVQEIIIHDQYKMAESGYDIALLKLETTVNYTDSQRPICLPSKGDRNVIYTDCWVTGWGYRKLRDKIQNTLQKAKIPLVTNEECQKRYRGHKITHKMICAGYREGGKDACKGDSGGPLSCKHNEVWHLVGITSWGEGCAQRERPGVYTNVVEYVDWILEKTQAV
Description: as §1, §2

T1 sequence (P08709 61-212 limits assumed): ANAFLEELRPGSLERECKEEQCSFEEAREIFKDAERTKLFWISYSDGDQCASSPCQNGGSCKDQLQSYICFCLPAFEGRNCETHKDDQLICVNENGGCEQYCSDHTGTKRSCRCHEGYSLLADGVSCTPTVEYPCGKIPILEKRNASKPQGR
T1 sequence (P08709 213-466 limits assumed): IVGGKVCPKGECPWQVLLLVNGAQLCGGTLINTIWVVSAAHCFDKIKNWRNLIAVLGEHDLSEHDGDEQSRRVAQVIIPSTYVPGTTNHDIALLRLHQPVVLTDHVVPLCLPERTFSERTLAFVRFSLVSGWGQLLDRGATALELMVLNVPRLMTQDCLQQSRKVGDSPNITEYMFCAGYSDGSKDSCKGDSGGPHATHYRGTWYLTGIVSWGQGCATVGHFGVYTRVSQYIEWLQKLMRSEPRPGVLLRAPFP
T1 sequence (P13726 33-251 partner limits assumed): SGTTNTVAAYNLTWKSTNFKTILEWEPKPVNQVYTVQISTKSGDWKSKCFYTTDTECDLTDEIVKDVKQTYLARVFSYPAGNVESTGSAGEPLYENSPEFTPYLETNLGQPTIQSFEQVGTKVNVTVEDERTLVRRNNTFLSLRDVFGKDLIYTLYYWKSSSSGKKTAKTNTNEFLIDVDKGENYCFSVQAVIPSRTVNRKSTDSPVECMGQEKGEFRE

B1: NAPTin-1 (protein)
chain: NPSCGENERHDECSRKECDPKCKYDGTEEKDDEKPVVCLTRVCYGDCICRDGFLRNKNGACVKAEDCELD
modifications: Sequence derived from Ancylostoma caninum or Synthetic
With B1 the “effect on fVIIa/TF activity (in words)” value (fVIIa/TF; 100 nM) was “without affecting; also recorded: no significant inhibitory activity”, the “effect on fVIIa/TF activity (in words)” value (fVIIa/TF; 200 nM) was “without affecting” and the “Clotting time PT” value (SD rats [1]; 0.1 mg/kg i.v.) was 11.8 ± 0.5. The “Clotting time PT” value (SD rats [1]; 1.0 mg/kg i.v.) was 12.0 ± 0.3, the “Clotting time PT” value (SD rats [1]; 5.0 mg/kg i.v.) was 11.5 ± 0.8 and the “effect on rat PT (in words)” value (SD rats [1]; 0.1-5 mg/kg i.v.) was “not prolonged PT”. The “Inhibition rate %” value (SD rats [2]; 0.1 mg/kg i.v.) was 80%, the Thrombosis rate (SD rats [2]; 0.1 mg/kg i.v.) was 2/10* and the “Inhibition rate %” value (SD rats [2]; 1.0 mg/kg i.v.) was 100%. For the same molecule, the Thrombosis rate (SD rats [2]; 1.0 mg/kg i.v.) was 0/10*, the “Inhibition rate %” value (SD rats [2]; 5.0 mg/kg i.v.) was 100% and the Thrombosis rate (SD rats [2]; 5.0 mg/kg i.v.) was 0/10*. For the same molecule, the “effect on rat venous thrombosis (in words)” value (SD rats [2]; rat, in vivo) was “significant antithrombotic effect”, the “Clotting time aPTT” value (SD rats [3]; 0.1 mg/kg i.v.) was 23.5 ± 2.1 and the “Clotting time aPTT” value (SD rats [3]; 1.0 mg/kg i.v.) was 56.3 ± 5.1. The “Clotting time aPTT” value (SD rats [3]; 5.0 mg/kg i.v.) was 136.7 ± 35.5, the “effect on rat aPTT (in words)” value (SD rats [3]; 0.1-5 mg/kg i.v.) was “prolonged significantly aPTT” and the “prolongation of aPTT (in words)” value (normal human plasma [4]; 100 nM and 500 nM) was “significantly prolong aPTT”. The “aPTT” value (normal human plasma [4]; 100 nM) was 79.2 ± 3.5 s, the “multiples of prolonging aPTT” value (normal human plasma [4]; 100 nM) was 1.98 and the “aPTT” value (normal human plasma [4]; 500 nM) was 228.3 ± 7.4 s. For the same molecule, the “multiples of prolonging aPTT” value (normal human plasma [4]; 500 nM) was 5.69, the “prolongation of PT (in words)” value (normal human plasma [5]; 100 nM and 500 nM) was “couldn't prolong PT” and the “PT” value (normal human plasma [5]; 100 nM) was 12.4 ± 0.9 s. The “PT” value (normal human plasma [5]; 500 nM) was 12.1 ± 0.4 s, the “wet weight of thrombus” value (SD rats [6]; 100 μg·kg^−1 i.v.) was 1.5 ± 0.2 mg and the Inhibition rate % (SD rats [6]; 100 μg·kg^−1 i.v.) was 66.7%. For the same molecule, the “wet weight of thrombus” value (SD rats [6]; 1 mg·kg^−1 i.v.) was 0.5 ± 0.3 mg, the Inhibition rate % (SD rats [6]; 1 mg·kg^−1 i.v.) was 88.9% and the “wet weight of thrombus (mg)” value (SD rats [6]; 5 mg·kg^−1 i.v.) was 0* mg. For the same molecule, the Inhibition rate % (SD rats [6]; 5 mg·kg^−1 i.v.) was 100%, the “inhibition of the activity of fXIa” value (human fXIa; 100 nM) was “more than 90%” and the “inhibition of the activity of fXIa (in words)” value (human fXIa; 200 nM) was “almost completely inhibited”.
